The source of these data is patent US20250213684A1, “COMBINATION THERAPIES COMPRISING ANTIBODY MOLECULES TO TIM-3” (Novartis AG, priority 2015, published 2025).

Test [1] has as its target huTIM-3/his (human) (UniProt Q8TDQ0). The test can be described thus: Biacore, 2nd antibody injection; 1st antibody (competitor) huIgG1. On the technique in general: In SPR one partner is held on a chip, and binding of the other changes the refractive index at the surface.
For test [2] the target is unchanged. Put plainly: Biacore, 2nd antibody injection; 1st antibody (competitor) ABTIM3-hum03.
The target is the same in test [3]. The test can be described thus: Biacore, 2nd antibody injection; 1st antibody (competitor) ABTIM3-hum11.
The target is the same in test [4]. The test can be described thus: Biacore, 2nd antibody injection; 1st antibody (competitor) ABTIM3-hum21.
For test [5] the target is unchanged. The test can be described thus: Biacore, 1st antibody injection on hTIM-3/his captured by anti-His antibody.

Regarding human IgG1 isotype control (antibody), the change in RU was determined as 3.6 RU with huTIM-3/his (human) [1]; 4.5 RU with huTIM-3/his (human) [2]; 3.8 RU with huTIM-3/his (human) [3]; 4.5 RU with huTIM-3/his (human) [4]; 0.27 RU with huTIM-3/his (human) [5].
